Biological target: human OX40 (human) (UniProt P43489)
Test: cell-based or functional assay

UniProt P43489, sequence (P43489 29-277): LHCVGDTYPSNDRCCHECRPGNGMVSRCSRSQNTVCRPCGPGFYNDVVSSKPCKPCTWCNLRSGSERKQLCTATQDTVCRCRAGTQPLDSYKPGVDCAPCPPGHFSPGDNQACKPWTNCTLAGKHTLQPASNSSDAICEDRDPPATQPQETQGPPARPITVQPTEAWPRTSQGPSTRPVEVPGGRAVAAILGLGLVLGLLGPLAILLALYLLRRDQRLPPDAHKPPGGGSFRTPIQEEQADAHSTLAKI

EC50 for T cell costimulation (proliferation of activated CD4+ Teff cells, CellTiter-Glo): 14 µg/mL
Substance: soluble OX40 ligand (BPS Biosciences, Catalog #71185) (from UniProt P23510 51-183)
